{"source": "paper PMC2173223", "about": "(The Journal of Cell Biology, 2002)", "molecular_target": "T1, Tim13p (recombinant, co-expressed with Tim8p in E. coli) (S. cerevisiae, UniProt P53299 1-105)", "T1 sequence (looked up)": "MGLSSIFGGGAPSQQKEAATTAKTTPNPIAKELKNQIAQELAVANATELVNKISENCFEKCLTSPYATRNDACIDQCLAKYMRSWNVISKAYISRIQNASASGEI", "assay": "quantitative amino acid analysis"}
{"binder": "Tim8p (recombinant, co-expressed with Tim13p in E. coli) (natural protein, S. cerevisiae, UniProt P57744 1-87, looked up) MSSLSTSDLASLDDTSKKEIATFLEGENSKQKVQMSIHQFTNICFKKCVESVNDSNLSSQEEQCLSNCVNRFLDTNIRIVNGLQNTR", "values": [{"measurement": "stoichiometry N", "result": 1, "unit": "molar ratio"}]}
